# According to patent US20200262877A1, “ION CHANNEL-BINDING PEPTIDES AND METHODS OF USE THEREOF” (priority 2017, published 2020):
# How the values were obtained:
# TRPV1 = target: T1, TRPV1 (Homo sapiens, UniProt Q8NER1); assay: Ion channel panel (IonWorks Barracuda): TRPV1; format: cell-based; settings: 100% = no change, <100% = inhibition
# T1 construct: host or cells: HEK293 or CHO
# Outline: (§1)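 Transfected HEK293 or CHO cells were exposed for at least 5 min to peptides at 200 nM and 20 μM final, tested in duplicate, in HEPES-buffered physiological saline. Activation was taken as peptide-plus-agonist current over control current ×100, and inhibition as 1 minus that ratio ×100. Each channel's control was its own reference compound.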
# GABA = assay: Ion channel panel (IonWorks Barracuda): GABA; format: cell-based; settings: 100% = no change, <100% = inhibition
# Outline: as §1
# Nav1.7 = target: T2, Nav1.7 (Homo sapiens, UniProt Q15858); assay: cell-based; format: cell-based; settings: 100% = no change; for Activity of Nav1.7 with peptide, expressed as a percentage of the reference compound: peptide at 0.2 μM; for Activity of Nav1.7 with peptide (percentage of the reference compound): peptide at 20 μM
# T2 construct: host or cells: HEK293 or CHO
# Kv1.2 = target: T3, Kv1.2 (Homo sapiens, UniProt P16389); assay: cell-based; format: cell-based; settings: 100% = no change, <100% = inhibition
# T3 construct: host or cells: HEK293 or CHO
# Outline: as §1
# Kv1.1 = target: T4, Kv1.1 (Homo sapiens, UniProt Q09470); assay: cell-based; format: cell-based; settings: 100% = no change, <100% = inhibition
# T4 construct: host or cells: HEK293 or CHO
# Outline: as §1
# Kv1.3 = target: T5, Kv1.3 (Homo sapiens, UniProt P22001); assay: cell-based; format: cell-based; settings: 100% = no change, <100% = inhibition
# T5 construct: host or cells: HEK293 or CHO
# Outline: as §1
# NR2A = target: T6, NR2A (Homo sapiens, UniProt Q12879); assay: Ion channel panel (IonWorks Barracuda): NR2A; format: cell-based; settings: 100% = no change, <100% = inhibition
# T6 construct: host or cells: HEK293 or CHO
# Outline: as §1
# Kir2.1 = target: T7, Kir2.1 (Homo sapiens, UniProt P63252); assay: Ion channel panel (IonWorks Barracuda): Kir2.1; format: cell-based; settings: 100% = no change, <100% = inhibition
# T7 construct: host or cells: HEK293 or CHO
# Outline: as §1
# hERG = hERG (Homo sapiens, UniProt Q12809); assay: in vitro; settings: 100% = no change, <100% = inhibition
# Outline: as §1
# Nav1.5 = Nav1.5 (Homo sapiens, UniProt Q14524); assay: in vitro; settings: 100% = no change; for Activity of Nav1.5 with peptide, expressed as a percentage of the reference compound: peptide at 0.2 μM; for Activity of Nav1.5 with peptide (percentage of the reference compound): peptide at 20 μM
# Outline: as §1
# NR2B = target: T8, NR2B (Homo sapiens, UniProt Q13224); assay: Ion channel panel (IonWorks Barracuda): NR2B; format: cell-based; settings: 100% = no change, <100% = inhibition
# T8 construct: host or cells: HEK293 or CHO
# Outline: as §1
# Cav2.1 = target: T9, Cav2.1 (Homo sapiens, UniProt O00555); assay: cell-based; settings: 100% = no change, <100% = inhibition
# T9 construct: host or cells: HEK293 or CHO
# Outline: as §1
# Cav2.2 = target: T10, Cav2.2 (Homo sapiens, UniProt Q00975); assay: cell-based; settings: 100% = no change, <100% = inhibition
# T10 construct: host or cells: HEK293 or CHO
# Outline: as §1
# Kv2.1 = target: T11, Kv2.1 (Homo sapiens, UniProt Q14721); assay: cell-based; settings: 100% = no change, <100% = inhibition
# T11 construct: host or cells: HEK293 or CHO
# Outline: as §1
# α4β2 = target: T12, α4β2 (Homo sapiens, UniProt P17787+P43681); assay: Ion channel panel (IonWorks Barracuda): α4β2; format: cell-based; settings: 100% = no change, <100% = inhibition
# T12 construct: host or cells: HEK293 or CHO
# Outline: as §1
# 5HT3a = target: T13, 5HT3a (Homo sapiens, UniProt P46098); assay: Ion channel panel (IonWorks Barracuda): 5HT3a; format: cell-based
# T13 construct: host or cells: HEK293 or CHO
# T13 sequence (P46098 whole entry, looked up): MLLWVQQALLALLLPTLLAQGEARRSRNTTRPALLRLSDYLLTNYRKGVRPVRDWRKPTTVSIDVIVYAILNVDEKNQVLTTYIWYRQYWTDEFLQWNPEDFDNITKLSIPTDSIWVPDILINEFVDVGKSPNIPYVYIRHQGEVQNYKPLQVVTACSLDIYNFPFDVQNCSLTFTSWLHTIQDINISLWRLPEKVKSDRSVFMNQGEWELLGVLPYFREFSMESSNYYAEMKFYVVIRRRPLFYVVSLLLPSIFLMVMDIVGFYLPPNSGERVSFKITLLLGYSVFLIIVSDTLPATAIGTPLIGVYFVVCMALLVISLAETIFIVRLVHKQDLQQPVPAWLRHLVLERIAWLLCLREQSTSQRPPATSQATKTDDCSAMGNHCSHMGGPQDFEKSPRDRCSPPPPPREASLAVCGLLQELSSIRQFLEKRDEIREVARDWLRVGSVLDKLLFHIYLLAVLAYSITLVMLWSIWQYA
# Outline: as §1
# TRPA1 = target: T14, TRPA1 (Homo sapiens, UniProt O75762); assay: Ion channel panel (IonWorks Barracuda): TRPA1; format: cell-based; settings: 100% = no change, <100% = inhibition
# T14 construct: host or cells: HEK293 or CHO
# Outline: as §1
# α3β4 = target: T15, α3β4 (Homo sapiens, UniProt P30926+P32297); assay: Ion channel panel (IonWorks Barracuda): α3β4; format: cell-based; settings: 100% = no change, <100% = inhibition
# T15 construct: host or cells: HEK293 or CHO
# Outline: as §1
# [1] = first of two Nav1.7 columns (probably TP1)
# [2] = second of two Nav1.7 columns (probably TP2)
# [3] = first of two Nav1.5 columns (probably TP1)
# [4] = second of two Nav1.5 columns (probably TP2)
# T2 sequence (Q15858 whole entry): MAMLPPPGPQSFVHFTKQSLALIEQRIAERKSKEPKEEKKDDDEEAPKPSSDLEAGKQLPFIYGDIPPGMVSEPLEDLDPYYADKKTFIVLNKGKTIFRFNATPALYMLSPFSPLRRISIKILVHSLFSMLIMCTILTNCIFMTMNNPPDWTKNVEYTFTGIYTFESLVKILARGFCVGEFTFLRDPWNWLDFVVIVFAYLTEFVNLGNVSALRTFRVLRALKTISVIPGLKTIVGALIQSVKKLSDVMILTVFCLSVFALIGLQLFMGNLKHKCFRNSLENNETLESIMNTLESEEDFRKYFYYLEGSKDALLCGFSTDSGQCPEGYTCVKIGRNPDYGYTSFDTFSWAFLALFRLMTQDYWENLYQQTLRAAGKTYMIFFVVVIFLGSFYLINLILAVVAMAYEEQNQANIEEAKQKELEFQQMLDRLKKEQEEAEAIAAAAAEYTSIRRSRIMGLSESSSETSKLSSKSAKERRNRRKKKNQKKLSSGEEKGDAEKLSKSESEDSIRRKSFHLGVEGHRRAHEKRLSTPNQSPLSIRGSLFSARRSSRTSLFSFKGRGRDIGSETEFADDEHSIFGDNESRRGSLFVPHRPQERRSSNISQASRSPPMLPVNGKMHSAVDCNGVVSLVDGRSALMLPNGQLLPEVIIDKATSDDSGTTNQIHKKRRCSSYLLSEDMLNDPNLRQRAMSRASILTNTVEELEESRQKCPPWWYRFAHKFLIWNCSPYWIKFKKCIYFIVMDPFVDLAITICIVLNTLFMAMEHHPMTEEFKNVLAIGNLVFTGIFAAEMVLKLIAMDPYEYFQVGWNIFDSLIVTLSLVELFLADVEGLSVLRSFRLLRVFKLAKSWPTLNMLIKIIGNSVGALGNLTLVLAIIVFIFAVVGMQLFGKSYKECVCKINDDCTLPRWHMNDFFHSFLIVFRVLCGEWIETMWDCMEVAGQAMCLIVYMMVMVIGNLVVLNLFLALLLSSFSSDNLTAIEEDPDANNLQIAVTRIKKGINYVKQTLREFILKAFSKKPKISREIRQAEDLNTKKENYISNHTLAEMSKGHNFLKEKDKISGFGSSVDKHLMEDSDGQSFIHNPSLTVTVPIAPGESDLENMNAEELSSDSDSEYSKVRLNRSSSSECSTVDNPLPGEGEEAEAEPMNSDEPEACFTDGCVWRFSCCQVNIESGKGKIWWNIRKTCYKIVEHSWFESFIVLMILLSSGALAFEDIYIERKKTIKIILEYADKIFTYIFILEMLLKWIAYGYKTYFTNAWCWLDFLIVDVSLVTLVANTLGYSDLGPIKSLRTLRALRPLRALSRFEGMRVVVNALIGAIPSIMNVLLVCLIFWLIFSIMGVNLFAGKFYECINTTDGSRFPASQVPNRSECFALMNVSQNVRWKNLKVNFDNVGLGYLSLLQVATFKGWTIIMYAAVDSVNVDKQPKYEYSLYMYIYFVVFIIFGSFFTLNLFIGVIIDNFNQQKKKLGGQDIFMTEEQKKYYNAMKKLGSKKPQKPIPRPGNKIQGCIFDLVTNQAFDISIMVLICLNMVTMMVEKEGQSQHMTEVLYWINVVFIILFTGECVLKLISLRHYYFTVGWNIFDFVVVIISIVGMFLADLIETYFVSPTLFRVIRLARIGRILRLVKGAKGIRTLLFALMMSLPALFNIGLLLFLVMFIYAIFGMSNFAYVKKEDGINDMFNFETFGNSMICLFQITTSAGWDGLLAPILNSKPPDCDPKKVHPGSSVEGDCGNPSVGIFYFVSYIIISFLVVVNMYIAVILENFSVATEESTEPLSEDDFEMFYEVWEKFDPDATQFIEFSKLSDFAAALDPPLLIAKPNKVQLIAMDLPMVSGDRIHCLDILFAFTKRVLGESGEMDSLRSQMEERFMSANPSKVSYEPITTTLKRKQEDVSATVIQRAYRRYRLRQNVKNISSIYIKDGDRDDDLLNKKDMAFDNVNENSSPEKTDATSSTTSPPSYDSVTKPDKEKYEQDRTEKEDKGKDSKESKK
# Sequence of Nav1.5 (Q14524 whole entry): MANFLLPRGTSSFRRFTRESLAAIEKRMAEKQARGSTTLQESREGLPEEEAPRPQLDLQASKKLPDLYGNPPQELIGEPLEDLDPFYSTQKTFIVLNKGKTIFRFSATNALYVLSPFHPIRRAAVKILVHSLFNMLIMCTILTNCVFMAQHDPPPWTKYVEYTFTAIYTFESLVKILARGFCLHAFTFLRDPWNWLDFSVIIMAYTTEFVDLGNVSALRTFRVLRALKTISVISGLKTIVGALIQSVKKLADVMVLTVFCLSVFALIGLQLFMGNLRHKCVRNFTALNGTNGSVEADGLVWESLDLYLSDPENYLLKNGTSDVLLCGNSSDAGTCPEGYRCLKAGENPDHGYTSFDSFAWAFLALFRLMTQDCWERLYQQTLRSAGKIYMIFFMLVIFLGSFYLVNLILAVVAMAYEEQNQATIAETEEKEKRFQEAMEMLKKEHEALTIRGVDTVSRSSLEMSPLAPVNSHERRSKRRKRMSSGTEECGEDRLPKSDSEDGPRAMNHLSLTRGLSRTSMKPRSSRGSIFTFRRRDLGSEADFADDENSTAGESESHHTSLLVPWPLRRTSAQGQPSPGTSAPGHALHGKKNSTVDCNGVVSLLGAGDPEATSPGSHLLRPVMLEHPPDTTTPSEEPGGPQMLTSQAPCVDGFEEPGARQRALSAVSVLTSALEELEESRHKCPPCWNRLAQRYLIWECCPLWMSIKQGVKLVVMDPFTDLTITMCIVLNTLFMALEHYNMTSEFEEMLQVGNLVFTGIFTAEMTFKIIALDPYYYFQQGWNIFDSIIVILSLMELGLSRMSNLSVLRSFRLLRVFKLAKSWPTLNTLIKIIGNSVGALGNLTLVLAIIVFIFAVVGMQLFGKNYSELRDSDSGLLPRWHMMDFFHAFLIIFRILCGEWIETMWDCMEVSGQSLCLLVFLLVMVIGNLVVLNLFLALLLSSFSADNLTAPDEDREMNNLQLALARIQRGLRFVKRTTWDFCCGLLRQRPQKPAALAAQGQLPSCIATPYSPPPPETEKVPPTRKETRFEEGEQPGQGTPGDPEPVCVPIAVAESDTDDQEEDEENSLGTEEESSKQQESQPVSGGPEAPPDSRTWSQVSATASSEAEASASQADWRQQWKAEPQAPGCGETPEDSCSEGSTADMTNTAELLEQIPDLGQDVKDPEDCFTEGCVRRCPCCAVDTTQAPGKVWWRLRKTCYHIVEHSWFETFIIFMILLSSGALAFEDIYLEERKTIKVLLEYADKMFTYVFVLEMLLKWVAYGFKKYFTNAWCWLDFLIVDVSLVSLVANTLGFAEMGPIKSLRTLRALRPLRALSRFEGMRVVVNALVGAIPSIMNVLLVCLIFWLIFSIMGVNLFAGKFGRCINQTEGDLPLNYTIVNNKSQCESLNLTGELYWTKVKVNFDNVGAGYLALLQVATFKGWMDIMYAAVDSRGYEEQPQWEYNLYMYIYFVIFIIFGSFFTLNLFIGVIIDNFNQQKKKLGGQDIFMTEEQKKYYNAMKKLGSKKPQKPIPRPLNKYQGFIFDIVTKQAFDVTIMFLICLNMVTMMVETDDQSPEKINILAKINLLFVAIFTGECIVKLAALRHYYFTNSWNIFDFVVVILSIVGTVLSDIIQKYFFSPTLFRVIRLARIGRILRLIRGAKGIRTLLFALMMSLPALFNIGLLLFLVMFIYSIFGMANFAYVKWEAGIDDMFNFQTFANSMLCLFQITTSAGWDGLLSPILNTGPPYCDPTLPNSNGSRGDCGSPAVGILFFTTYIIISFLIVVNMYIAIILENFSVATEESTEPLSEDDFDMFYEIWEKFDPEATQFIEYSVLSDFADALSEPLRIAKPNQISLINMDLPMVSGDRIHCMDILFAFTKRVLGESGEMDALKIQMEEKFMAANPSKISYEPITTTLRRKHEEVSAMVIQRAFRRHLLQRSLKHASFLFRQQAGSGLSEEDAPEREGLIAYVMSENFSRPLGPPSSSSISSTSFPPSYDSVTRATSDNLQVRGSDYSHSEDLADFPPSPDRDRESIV
# T11 sequence (Q14721 whole entry): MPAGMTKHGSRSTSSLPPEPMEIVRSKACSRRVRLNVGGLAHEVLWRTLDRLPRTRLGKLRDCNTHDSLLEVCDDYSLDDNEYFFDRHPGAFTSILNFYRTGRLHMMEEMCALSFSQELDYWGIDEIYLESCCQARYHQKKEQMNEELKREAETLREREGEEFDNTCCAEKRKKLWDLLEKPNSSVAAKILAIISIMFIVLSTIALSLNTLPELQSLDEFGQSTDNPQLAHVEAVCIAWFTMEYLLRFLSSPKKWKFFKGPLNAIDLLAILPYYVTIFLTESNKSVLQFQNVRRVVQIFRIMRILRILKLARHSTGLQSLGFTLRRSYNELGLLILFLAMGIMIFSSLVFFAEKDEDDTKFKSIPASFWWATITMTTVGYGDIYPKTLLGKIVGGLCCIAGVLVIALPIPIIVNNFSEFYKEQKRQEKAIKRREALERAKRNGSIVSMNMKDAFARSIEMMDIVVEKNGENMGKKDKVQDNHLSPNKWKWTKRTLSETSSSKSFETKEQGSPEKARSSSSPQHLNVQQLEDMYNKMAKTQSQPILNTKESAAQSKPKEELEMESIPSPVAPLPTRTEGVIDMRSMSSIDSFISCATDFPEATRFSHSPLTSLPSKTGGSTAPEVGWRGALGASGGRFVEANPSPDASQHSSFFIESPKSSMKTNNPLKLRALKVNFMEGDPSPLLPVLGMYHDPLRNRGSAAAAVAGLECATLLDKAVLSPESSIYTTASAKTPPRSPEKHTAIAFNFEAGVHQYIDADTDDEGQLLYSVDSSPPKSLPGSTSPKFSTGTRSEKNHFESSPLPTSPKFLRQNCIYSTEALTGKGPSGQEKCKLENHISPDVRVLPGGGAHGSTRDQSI
substance,measurement,setting,value
23 (GSCIGEGVPCDENDPRCCFGLVCLKPTLHGIWYKSYYCYKK) [compound 23],"Activity of TRPV1 with peptide, expressed as a percentage of the reference compound",TRPV1; peptide at 0.2 μM,117%
same,Activity of TRPV1 with peptide (percentage of the reference compound),TRPV1; peptide at 20 μM,87%
same,"Activity of GABA with peptide, expressed as a percentage of the reference compound",GABA; peptide at 0.2 μM,100%
same,Activity of GABA with peptide (percentage of the reference compound),GABA; peptide at 20 μM,103%
same,"Activity of Nav1.7 with peptide, expressed as a percentage of the reference compound",Nav1.7; [1],89%
same,"Activity of Nav1.7 with peptide, expressed as a percentage of the reference compound",Nav1.7; [2],93%
same,Activity of Nav1.7 with peptide (percentage of the reference compound),Nav1.7; [1],65%
same,Activity of Nav1.7 with peptide (percentage of the reference compound),Nav1.7; [2],63%
same,"Activity of Kv1.2 with peptide, expressed as a percentage of the reference compound",Kv1.2; peptide at 0.2 μM,83%
same,Activity of Kv1.2 with peptide (percentage of the reference compound),Kv1.2; peptide at 20 μM,106%
same,"Activity of Kv1.1 with peptide, expressed as a percentage of the reference compound",Kv1.1; peptide at 0.2 μM,95%
same,Activity of Kv1.1 with peptide (percentage of the reference compound),Kv1.1; peptide at 20 μM,102%
same,"Activity of Kv1.3 with peptide, expressed as a percentage of the reference compound",Kv1.3; peptide at 0.2 μM,81%
same,Activity of Kv1.3 with peptide (percentage of the reference compound),Kv1.3; peptide at 20 μM,77%
same,"Activity of NR2A with peptide, expressed as a percentage of the reference compound",NR2A; peptide at 0.2 μM,88%
same,Activity of NR2A with peptide (percentage of the reference compound),NR2A; peptide at 20 μM,89%
same,"Activity of Kir2.1 with peptide, expressed as a percentage of the reference compound",Kir2.1; peptide at 0.2 μM,105%
same,Activity of Kir2.1 with peptide (percentage of the reference compound),Kir2.1; peptide at 20 μM,82%
same,"Activity of hERG with peptide, expressed as a percentage of the reference compound",hERG; peptide at 0.2 μM,92%
same,Activity of hERG with peptide (percentage of the reference compound),hERG; peptide at 20 μM,78%
same,"Activity of Nav1.5 with peptide, expressed as a percentage of the reference compound",Nav1.5; [3],85%
same,"Activity of Nav1.5 with peptide, expressed as a percentage of the reference compound",Nav1.5; [4],87%
same,Activity of Nav1.5 with peptide (percentage of the reference compound),Nav1.5; [3],85%
same,Activity of Nav1.5 with peptide (percentage of the reference compound),Nav1.5; [4],83%
same,"Activity of NR2B with peptide, expressed as a percentage of the reference compound",NR2B; peptide at 0.2 μM,95%
same,Activity of NR2B with peptide (percentage of the reference compound),NR2B; peptide at 20 μM,82%
same,"Activity of Cav2.1 with peptide, expressed as a percentage of the reference compound",Cav2.1; peptide at 0.2 μM,95%
same,Activity of Cav2.1 with peptide (percentage of the reference compound),Cav2.1; peptide at 20 μM,102%
same,"Activity of Cav2.2 with peptide, expressed as a percentage of the reference compound",Cav2.2; peptide at 0.2 μM,110%
same,Activity of Cav2.2 with peptide (percentage of the reference compound),Cav2.2; peptide at 20 μM,95%
same,"Activity of Kv2.1 with peptide, expressed as a percentage of the reference compound",Kv2.1; peptide at 0.2 μM,93%
same,Activity of Kv2.1 with peptide (percentage of the reference compound),Kv2.1; peptide at 20 μM,103%
same,"Activity of a4b2 with peptide, expressed as a percentage of the reference compound",α4β2; peptide at 0.2 μM,87%
same,Activity of a4b2 with peptide (percentage of the reference compound),α4β2; peptide at 20 μM,79%
same,Activity of 5HT3a with peptide (percentage of the reference compound),5HT3a,101%
same,"Activity of 5HT3a with peptide, expressed as a percentage of the reference compound",5HT3a,74%
same,"Activity of TRPA1 with peptide, expressed as a percentage of the reference compound",TRPA1; peptide at 0.2 μM,126%
same,Activity of TRPA1 with peptide (percentage of the reference compound),TRPA1; peptide at 20 μM,83%
same,"Activity of a3b4 with peptide, expressed as a percentage of the reference compound",α3β4; peptide at 0.2 μM,94%
same,Activity of a3b4 with peptide (percentage of the reference compound),α3β4; peptide at 20 μM,93%
